# According to the nanobody polyreactivity screen of Harvey et al. (2022):
# Assay: yeast display, Sf9 membrane polyspecificity reagent, FACS + sequencing; frameworks hold sequencing errors
# Outline: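 Galactose-induced (36–48 hours) yeast carrying a synthetic nanobody display library were exposed to 10% biotinylated, detergent-solubilized Sf9 membrane reagent at 4 °C for 1 hour. FACS followed streptavidin microbead enrichment, using low and high (top ~1%) gates for expression (anti-HA) and reagent binding (streptavidin). Colony PCR, MiSeq 2 × 250 sequencing and CDR-length filtering followed. Labels for polyreactivity reflect the gate of origin.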
row,Sequence,polyreactivity (PSR sort gate)
1,QVQLVESGGGLVQAGGSLRLSCAASGFIFSRYVMGWYRQAPGKERELVAAISGSGGRTYYADSVKGRFTISRDKAKNTVYLQMNSLKPEDTAVYYCAARFLSPYHYYYWGQGTQVTVSS,high polyreactivity
2,QVQLVESGGGVVQAGGSLRLSCAASGRIFRYYTMGWYRQAPGKERELVASITGSGTSTYYADSVKGRFTISRDNAKNTVYLQMNSLKPEDNAVYYCNARGFRVASHAAWYQYDYWGQGTQVTVSS,high polyreactivity
3,QVQLVESGGGLVQAGGSLRLSCAASGSIFIVNVMGWYRQAPGKERELVAGITTNGGITYYADSVKGRFTISRDNAKNTVYLQMNSLKPEDTAVYYCATRSGSPSSIEMDYWGQGTQVTVSS,low polyreactivity
4,QVQLVESGGGLVQAGGSLRLSCAASGITFLNYAMGWSRQEPGKERELVAAITSGGSTYYADSVKGRFTITRDNAKNTVYLQMNSLKPEDTAVYYCAADGDSLPYSFWWQIRLDYWGQGTVVTVSS,low polyreactivity
5,QVQLVESGGGLGQAGVSLRLSCAASGRIFYFNAMGWYRQAPGKEREMVAANSWSGGSTYYADSVKGRFTISRDNAKNTVYLQMNSLKPEDTAVYYCATDSYRQGDYYLGRVDYWGQGTQVTVSS,low polyreactivity
6,QVQLVESGGGLVQAGGSLRLSCAASGRTFPNVMGWYRQAPGKERELVAAISSSVGSTSYADSVKGRFTISRDNAKNTVYLQMNSLKPEDTAVYYCAARYYYRDWVGIISTYYYWGQGTQVTVSS,high polyreactivity
7,HVQHVESGGGLVQAGGSLRLSCADSGNTFSDNAMGLYRQAPGKVRELVAAISTSGGSTYYADSVKGRFTISRDNAKNTVYLQMNSLNPEDTADYYFAAQFTVLWYEYYYWVQGTQVTVSS,high polyreactivity
8,QVQLVHSGGRLVQAGGRLRLSCAASGSTFSSYARGRYIQGPRKERELVAAISWNGGSTYYADSVKGRFTISRDNAKNTVYLQMNSLKPQDTAVYYCAAIYFRNTYSYGMDYWGQGTQVTVSS,high polyreactivity
9,QVQLVESGAGLVQAGGSLRLSCAASGSIFRVYAMGWYRQAPGKERELVAAISQSADSTYYADSVKGRFTILRDNAKYTVYLQMNSLKPEDTAVYYCAAEYPYIYRFDYWGQGTQVTVSS,low polyreactivity
10,QVQLVESGGGLVQAGCSLRISCADSGRTFDEYAMGWYRQAPGKERELVAAISGSAGSTYYADSVKGRFTISRDNAKNSVYLQMNSLKPEDTAVYYCNAEVYGELYYWGQGTQVTVSS,low polyreactivity
11,QVQLVESGGGLVQAGGSLRLSCAASGSTFRPYSMGWYRQAPGKEREFVAAINYRGGSTNYADSVKGRFTISRDNAKNTVYLQMNSLKPEDTAVYYCAATYYLRLRRPYWQGFNYWGQGTQVTVSS,high polyreactivity
12,QVQLVESGGGLVQAGGSLRLSCAASGFNFDENAMGWYRQAPGKEREFYAAISISGSSTYADSVKGRFTISRDNAKNTVYLQMNCLKPEDTAVYFCAASYTTEYTGDGHSGVGDGDYWGQGTQVTVSS,low polyreactivity
13,QVQLVESGGGLVQAGGSLRLSCAASGSIFGYNVMGWYRQAPGKERELVAAITVNGGRTYYADSVKGRFTISRDNAKNTVYLQINSLKAEDTAVYYCAARVTGTQRSGYYWGQGTQVTVSS,high polyreactivity
14,QVQLVESGGGLVQAGGSLRLSCAPSGSTFGDNAMGWYRQAPGKERELVAAISSGGGSTYYADSVKGRFTISRDNAKNTVYLQMNSLKPEDTAVYYCAADGTLTLYRYILDYWGQGTQVTVSS,low polyreactivity
15,QVQLVESGGGLVQAGGSLRLSCAASGRTISINAMGWYRQAPGKERELVADISKSGGRTYYADSVKGRFTISRDNAKNTVYLQMNSLKPEDTAVYYCAKGAYYVPVIYHAVYSWGQGTQVTVSS,low polyreactivity
16,QVQLVESVGGLVQAGGSLRLTCAASVITQRFNSMGWYRQAPGKEMELVAAISSGTNTYYADSVKGRFAISRDNAKNTVYLQMNSLKPEDTAVYYCADTLGYYTSGRSYQRYDYWGHGTQVTVSS,low polyreactivity
17,QVQLVESGGGLVQAGGSLRLICAASGRIFVPYAMGWYRQAPGKERELVAAITYDGGSTYYADSVKGRFTISRDNAKNTVYLQMNSLKPEDTAVYYCAADYGYSQYILGQFRLEELDYWGQGTQVTVSS,low polyreactivity
18,QVQLEESGGGLVQAGGILRFSCAASGYTFRGYAMGWYRQAPGKEREFVAAIRNSGDSSYYADSVKGRFTISRDNAKNTVYLQRHSLKPEDTAVYYSAAYSRSSKYDYWGQGSQVTVSS,low polyreactivity
19,QVHLVESGGGLVQAGGSLRLSSAASGITFVINAMGWYRQAPGKERELVASINFDTDTTYADSEKGRFTISRDNAKNTVYLQMNSLKPEDTAVYYCNADLPWARHTVDSIEFDYWGQGTQVTVSS,low polyreactivity
20,QVQLVESGGGLVQAGGSLRLSCAASGRIIFAYTMGWYRQAPGKERELVAAISSSGSTYYADSVKGRFTISRDNAKNTVYLQMNSLKPEDTAVYYLRVQRRAYRYDYWGQGTQVTVTS,high polyreactivity
21,QVQLVESGGGLVQAGGSLRLSCAASGRTYGYAMGWYRQAPGKERELVARITWRGGSTSYADSVKGRFTISRENAKNTVYLQMNSLKPEDTAVYYCAAGFNSSDWHYYYRGQGTQVTVSS,high polyreactivity
22,QVQLVESGGGLVQAGGSLRLSCAASGIIFSYYAMGWYRQAPGKERELVAAISSGGSTNYADSVKGRFTISRDNAKNTVYLQMNSLKPEDTAVYYCAPLYRDYDWIFEYWGQGTQVTVSS,low polyreactivity

row,Sequence,polyreactivity (PSR sort gate)
1,QVQLVESGGGLVQAGGSLRLSCAASGRTLFGNAMGWYRQAPAKERELVAAISRRGGSTSYADSVKGRFTISRDNAKNTVYLQMNSLKPEDTAVYYCASAQGKYTGTHYPYDYWGQGTQVTVSS,low polyreactivity
2,QVQLVESGGGLVQAGGSLRLSCAASGITFWYYAMGWYRQAPGKERELVAVISRGGSTYYADSVKGRFTISRDNAKNTVYLQMNSLKPEDTAVYYCAARPRWYTYTRQEYDYWGQGTQVTVSS,high polyreactivity
3,QVQLVESGGGLVQAGGSLRLICAASGRIFRYNARGWYRQAPGKERELVAAISSGGSTNYADSVKGRFTTSRDNAKNTVYLQMNSLKPEDTAVYYCNAESVHRYPGWGYDYWGQGTQVTVSS,low polyreactivity
4,QVHLVESGGGLVQAGGSLRLSCAASGSIFAAYTMGWYRRAPGKERELVAAISVSTVSTYYADSVKGRFTISRDNAKNTVYLQMNSLNPEDTAVYYCNADATDSYPEKDEHDSWGQGTQVTVSS,low polyreactivity
5,QVQLVESGGGLVQAGGSLRLSCAASGRIFTYYAMVWYRQAPGKERELVAAITGSGTSTYYADSVKGRFTISRDNAMNTVFLLMNSLKPEDTAVYYCAARNSFSRYYYWGQGTQVTVSS,high polyreactivity
6,QVQLVESGGGLVQAGGSLRLSCAGLRIYLPGYAKGWYIQAPGKERELVAVISGSGSGTYYADSVKGRFTISLDNAKNTVYLQMNSLKPEDTAVYYCAADAGSNEAYFRRMDYWGQGTQVTVSS,high polyreactivity
7,QVQLVESGGGLVQAGGSLRLSCAASGFTFTRYAMGWYRQAPGKERELVAAISRIGGSTYYADSVKGRFTISRDNAKNTVYLQMNSLKPEDTAVYYCAAYKVPSYDYWGQGTQVTVSS,high polyreactivity
8,QVQLVESGGGLVQAGGSLRLICAASGRIFASYTMGWYRQAPGKERELVAGISRRGGSTYYADSVKGRFTISRDNAKNTVYLQMNSLKPEDTAVYYCAAVSSVFSVRYDYWGQGTQVTVSS,high polyreactivity
9,QVQLVESGGGLVQAGGSLRLSCAASGSTFGINAMGWYRQAPGKERELVARISTGVRTYYADSVKGRFTISRDNAKNTVYLQMNSLKPEDTAVYYCAAVYYRGVDRAILSYRYYYWGQGTQVTVSS,high polyreactivity
10,QVQLVESVGGLVQAGGSLRLSCPASGFIFSGHTMGWYRQAPGKERELVAAITSGGGRTYYADSVKGRFTISRDNAKNTVYLQMNSLKPEDTAVYYCNTAFVYEYDYWGQGTQVTVSS,high polyreactivity
11,QVQLVESGGRLVQAGGSLRLSCAASGGIFPPNAKGWYRQAPGKERELVASISSDGSTNYADSVKGRFTISRDNAKNTVYLQMNSLKPEDTAVYYCAADSTTSWARLHVRRFYYWGQGTQVTVSS,low polyreactivity
12,QVQLVESGGGLVQAGGSLRLSCAASGFTFGNYAMGWYRQAPGKERELVAVISRSGGNTYYADSVKGRFTISRDNAKNTVYLQMNSLKPEDTAVYYCAATLVGKVFRRFDYWGQGTQVTVSS,high polyreactivity
13,QVQLVESGGGLVQAGGSLRLSCAASGRTSVYNAMGWYRPAPGKERELVAAIRGGGGNTYYADSVKGRFTISRDNAKNTVYLQMNSLKPADTAVYYCAKGSVVYLLRGVKGHSMDYWGQGTQVTVSS,low polyreactivity
14,QVQLQESGGGLVLAGGSLRLSCSASGNISVYGSMGWYRQAPGKEREFVATIDPGTNTNYADSVKDRFTISRDNAKNTVYLQMNSLKPEDTAVYYGAVEAGSDWPYPYWGQGTQVTVSS,low polyreactivity
15,QGQLVESGAGLVQAGGSLRLSCAASGITLHGYVMGWYRQAPGKETELVAAITSSGGRTYYADSVKGRFTISRDNAKNTVYLQMNRLKPVDTAVYYCAARIYYYAFSGYYWGQGTQVTVSS,high polyreactivity
16,QVQLVESGGGLVQAGGSLRLSCAASGIIFLNYAMGWYRQAPGKERELVAAITTSGGNTYYADSVKGRFTISRDNAKNTVYLQMNSLKPEDTAVYYCAATDLYFWYPYWFAFEYDYWGQGTQVTVSS,high polyreactivity
17,QVQIVESGGGLVQAGGSLRLSCPASGSTFSRYAMGWYRQAPGKERELVAAISWSGGRTYYADSVKGRFTISRDYATNTVYLLMNSLKPEDTAVYYCAARKLVVILREEYWVQGTQVTVSS,high polyreactivity
18,QVQLQESGGGLVQAGGCLRLSCAASGTISTAYQMGWYRQAPGKEREFVAAIGYGAITNYADSVKGRFTISRDNAKNTVYLQMNSLKPEDTAVYYCAARRYVAGRGAYDYWGQGTQVTLSS,low polyreactivity
19,QVQLQESGGGLVQAGGSLRLSCAASGYISAGRQMGWYRQAPGKEREFVATINGGATTNYADSVKGRFTISRDNAKNSVYLQMNSLKPEDTAVYYCAAVIWYVQDYTYWGQGAQVTVSS,high polyreactivity
20,QVQLVESGGGLVQAGGSLRLSCAASGRIFYFNAMGWYRQAPGKERELVAAMSWTGGSTYYADSVKGRFTISRDTAKNTVYLQMNSLKPEDTAVYYCAADRALSISLYPIASFDYWGQGTQVTVSS,low polyreactivity
21,QVQLEESGGCLVQAGGSLRLICAASGSTFDANAMGWYRQAPGKERELVATISDGGSTNYADSVKGRFTISRDNAKNTVYLQMNSLKPEDTSVYYCAALWYYGGKSACPGGGYWGQGTQVTVSS,low polyreactivity
